Laboratory results taken from publication PMC3320862, “Structural and Functional Analysis of the Symmetrical Type I Restriction Endonuclease R.EcoR124INT” (PLOS One, 2012).

How the values were obtained:
[1] = molecular target: T1, M.EcoR124INT methyltransferase (UniProt P10484 1-520; P10485 1-215); assay: small-angle neutron scattering; ENase formed at 2:1 molar ratio HsdR:MTase, ca. 3 uM, buffer A; fully protonated complex in H2O, and complex with deuterated HsdR and protonated MTase in 40% D2O (MTase matched out); conditions: both partners purified
T1 construct: HsdM (modification subunit, M) of the Type I restriction-modification system EcoR124I; SNT: residues 1-215 of the parent specificity subunit HsdS (S) of EcoR124I, holding the N-terminal target recognition domain and the central conserved region; Complex formed beforehand (M and SNT), to which HsdR was added; M2 stoichiometry is printed for Type I MTases in general (M2S); 'two modified SNT …
T1 sequence (looked up) 1: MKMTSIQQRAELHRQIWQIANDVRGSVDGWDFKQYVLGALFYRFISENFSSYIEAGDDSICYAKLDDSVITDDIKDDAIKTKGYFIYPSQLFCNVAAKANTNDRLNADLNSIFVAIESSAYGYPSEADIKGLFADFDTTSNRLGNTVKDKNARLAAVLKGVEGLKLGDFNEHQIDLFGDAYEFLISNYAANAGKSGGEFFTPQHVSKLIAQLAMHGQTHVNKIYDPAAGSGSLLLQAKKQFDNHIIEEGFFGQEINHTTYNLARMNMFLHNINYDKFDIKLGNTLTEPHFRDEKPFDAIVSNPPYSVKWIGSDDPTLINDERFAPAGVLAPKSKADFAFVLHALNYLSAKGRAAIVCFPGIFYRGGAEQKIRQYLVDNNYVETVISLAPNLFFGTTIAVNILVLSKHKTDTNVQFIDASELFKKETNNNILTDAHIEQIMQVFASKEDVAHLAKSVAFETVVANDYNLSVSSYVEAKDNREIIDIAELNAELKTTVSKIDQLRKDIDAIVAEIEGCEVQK
T1 sequence (looked up) 2: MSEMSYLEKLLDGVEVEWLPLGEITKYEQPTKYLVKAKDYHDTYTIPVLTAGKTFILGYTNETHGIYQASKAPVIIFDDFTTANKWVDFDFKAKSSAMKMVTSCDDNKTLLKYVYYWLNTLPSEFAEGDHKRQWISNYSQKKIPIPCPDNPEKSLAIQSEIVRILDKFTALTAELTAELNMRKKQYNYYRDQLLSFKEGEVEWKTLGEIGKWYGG

[2] = molecular target: T1, M.EcoR124INT methyltransferase; assay: native gel or EMSA; purified HsdR mixed with MTase at 1:1 and 2:1 molar ratios, then with a 30 bp DNA duplex with the recognition sequence (1:1 enzyme:DNA); 2 uM MTase and DNA, 2 or 4 uM HsdR; 6% non-denaturing polyacrylamide gel, 150 V, 2.5 h, 0.25x TBE; no difference with 10 mM MgCl2; conditions: both partners purified

B1: HsdR from EcoR124I (enzyme, UniProt P10486 1-1038, looked up)
chain: MTHQTHTIAESNNFIVLDKYIKAEPTGDSYQSESDLERELIQDLRNQGYEFISVKSQSAMLANVREQLQNLNGVVFNDSEWRRFTEQYLDNPSDGILDKTRKIHIDYICDFIFDDERLENIYLIDKKNLMRNKVQIIQQFEQAGSHANRYDVTILVNGLPLVQIELKKRGVAIREAFNQIHRYSKESFNSENSLFKYLQLFVISNGTDTRYFANTTKRDKNSFDFTMNWAKSDNTLIKDLKDFTATCFQKHTLLNVLVNYSVFDSSQTLLVMRPYQIAATERILWKIKSSFTAKNWSKPESGGYIWHTTGSGKTLTSFKAARLATELDFIDKVFFVVDRKDLDYQTMKEYQRFSPDSVNGSENTAGLKRNLDKDDNKIIVTTIQKLNNLMKAESDLPVYNQQVVFIFDECHRSQFGEAQKNLKKKFKRYYQFGFTGTPIFPENALGSETTASVFGRELHSYVITDAIRDEKVLKFKVDYNDVRPQFKSLETETDEKKLSAAENQQAFLHPMRIQEITQYILNNFRQKTHRTFPGSKGFNAMLAVSSVDAAKAYYATFKRLQEEAANKSATYKPLRIATIFSFAANEEQNAIGEISDETFDTSAMDSSAKEFLDAAIREYNSHFKTNFSTDSNGFQNYYRDLAQRVKNQDIDLLIVVGMFLTGFDAPTLNTLFVDKNLRYHGLMQAFSRTNRIYDATKTFGNIVTFRDLERSTIDAITLFGDKNTKNVVLEKSYTEYMEGFTDAATGEAKRGFMTVVSELEQRFPDPTSIESEKEKKDFVKLFGEYLRAENILQNYDEFATLKALQQIDLSDPVAVEKFKAEHYVDDEKFAELQTIRLPADRKIQDYRSAYNDIRDWQRREKEAEKKEKSTTDWDDVVFEVDLLKSQEINLDYILGLIFEHNRQNKGKGEMIEEVKRLIRSSLGNRAKEGLVVDFIQQTNLDDLPDKASIIDAFFTFAQREQQREAEALIKEENLNEDAAKRYIRTSLKREYATENGTELNETLPKLSPLNPQYKTKKQAVFQKIVSFIEKFKGVGGKI
notes: HsdR (restriction / motor subunit) of the Type I restriction-modification system EcoR124I; about 120 kDa as printed; For one SANS sample the same protein was made about 75% deuterated (85% D2O minimal medium); also called R subunit; motor subunit; source: expressed and purified as described previously [24]; deuterated form from BL21 (DE3) with the expression plasmid pBGSR124
[1]
  stoichiometry N: 2 HsdR per complex
[2]
  stoichiometry N: 2 HsdR per MTase
